According to patent US20260199524:

Columns and labels:
Histone H3.1 = Histone H3.1 (UniProt P68431)
Histone H3.3 = Histone H3.3 (UniProt P84243)
Histone H4 = Histone H4 (UniProt P62805)

Substance: wild type SIRT6 polypeptide (sirtuin 6)
- histone acetylation/methylation PTM profile by LC-MS/MS in 3T3-L1 adipocytes (Histone H3.1): Overexpression of SIR6 wt or SIRT6cent in 3T3-L1 led to changes in the acetylation profiles of histones H3.1, H3.2 and H4
- histone acetylation/methylation PTM profile by LC-MS/MS in 3T3-L1 adipocytes (Histone H3.3): significant difference between AdiWT and AdiCent at the levels of lysines (K) ... K27, K36 and K37 in H3.3
- histone acetylation PTM profile by LC-MS/MS in 3T3-L1 adipocytes (Histone H4): Overexpression of SIR6 wt or SIRT6cent in 3T3-L1 led to changes in the acetylation profiles of histones H3.1, H3.2 and H4
